Entries after “also recorded” stand apart in the source; their conditions may differ.
B1: 769 (protein)
chain: MALPVTALLLPLALLLHAARPEIVMTQSPATLSLSPGERATLSCRASQDISKYLNWYQQKPGQAPRLLIYHTSRLHSGIPARFSGSGSGTDYTLTISSLQPEDFAVYFCQQGNTLPYTFGQGTKLEIKGGGGSGGGGSGGGGSQVQLQESGPGLVKPSETLSLTCTVSGVSLPDYGVSWIRQPPGKGLEWIGVIWGSETTYYQSSLKSRVTISKDNSKNQVSLKLSSVTAADTAVYYCAKHYYYGGSYAMDYWGQGTLVTVSSTTTPAPRPPTPAPTIASQPLSLRPEACRPAAGGAVHTRGLDFACDIYIWAPLAGTCGVLLLSLVITLYCKRGRKKLLYIFKQPFMRPVQTTQEEDGCSCRFPEEEEGGCELRVKFSRSADAPAYQQGQNQLYNELNLGRREEYDVLDKRRGRDPEMGGKPRRKNPQEGLYNELQKDKMAEAYSEIGMKGERRRGKGHDGLYQGLSTATKDTYDALHMQALPPRGGGGSGGGGTGGGGSGMHKRSHTGERPFQCNQCGASFTQKGNLLRHIKLHTGEKPFKCHLCNTASAEARHIKAEMG
B2: 766 (protein)
chain: MALPVTALLLPLALLLHAARPRSSLALSLTADQMVSALLDAEPPILYSEYDPTRPFSEASMMGLLTNLADRELVHMINWAKRVPGFVDLALHDQVHLLECAWMEILMIGLVWRSMEHPGKLLFAPNLLLDRNQGKCVEGGVEIFDMLLATSSRFRMMNLQGEEFVCLKSIILLNSGVYTFLSSTLKSLEEKDHIHRVLDKITDTLIHLMAKAGLTLQQQHQRLAQLLLILSHIRHMSSKRMEHLYSMKCKNVVPLSDLLLEMLDAHRLGTGAEDPRPSRKRRSLGDVGEIVMTQSPATLSLSPGERATLSCRASQDISKYLNWYQQKPGQAPRLLIYHTSRLHSGIPARFSGSGSGTDYTLTISSLQPEDFAVYFCQQGNTLPYTFGQGTKLEIKGGGGSGGGGSGGGGSQVQLQESGPGLVKPSETLSLTCTVSGVSLPDYGVSWIRQPPGKGLEWIGVIWGSETTYYQSSLKSRVTISKDNSKNQVSLKLSSVTAADTAVYYCAKHYYYGGSYAMDYWGQGTLVTVSSTTTPAPRPPTPAPTIASQPLSLRPEACRPAAGGAVHTRGLDFACDIYIWAPLAGTCGVLLLSLVITLYCKRGRKKLLYIFKQPFMRPVQTTQEEDGCSCRFPEEEEGGCELRVKFSRSADAPAYQQGQNQLYNELNLGRREEYDVLDKRRGRDPEMGGKPRRKNPQEGLYNELQKDKMAEAYSEIGMKGERRRGKGHDGLYQGLSTATKDTYDALHMQALPPRGGGGSGGGGTGGGGSGMHKRSHTGERPFQCNQCGASFTQKGNLLRHIKLHTGEKPFKCHLCNTASAEARHIKAEMGGKPIPNPLLGLDST
B3: 765 (protein)
chain: MALPVTALLLPLALLLHAARPRSSLALSLTADQMVSALLDAEPPILYSEYDPTRPFSEASMMGLLTNLADRELVHMINWAKRVPGFVDLALHDQVHLLECAWMEILMIGLVWRSMEHPGKLLFAPNLLLDRNQGKCVEGGVEIFDMLLATSSRFRMMNLQGEEFVCLKSIILLNSGVYTFLSSTLKSLEEKDHIHRVLDKITDTLIHLMAKAGLTLQQQHQRLAQLLLILSHIRHMSSKRMEHLYSMKCKNVVPLSDLLLEMLDAHRLGTGAEDPRPSRKRRSLGDVGEIVMTQSPATLSLSPGERATLSCRASQDISKYLNWYQQKPGQAPRLLIYHTSRLHSGIPARFSGSGSGTDYTLTISSLQPEDFAVYFCQQGNTLPYTFGQGTKLEIKGGGGSGGGGSGGGGSQVQLQESGPGLVKPSETLSLTCTVSGVSLPDYGVSWIRQPPGKGLEWIGVIWGSETTYYQSSLKSRVTISKDNSKNQVSLKLSSVTAADTAVYYCAKHYYYGGSYAMDYWGQGTLVTVSSTTTPAPRPPTPAPTIASQPLSLRPEACRPAAGGAVHTRGLDFACDIYIWAPLAGTCGVLLLSLVITLYCKRGRKKLLYIFKQPFMRPVQTTQEEDGCSCRFPEEEEGGCELRVKFSRSADAPAYQQGQNQLYNELNLGRREEYDVLDKRRGRDPEMGGKPRRKNPQEGLYNELQKDKMAEAYSEIGMKGERRRGKGHDGLYQGLSTATKDTYDALHMQALPPR
B4: 767 (protein)
chain: MALPVTALLLPLALLLHAARPRSSLALSLTADQMVSALLDAEPPILYSEYDPTRPFSEASMMGLLTNLADRELVHMINWAKRVPGFVDLALHDQVHLLECAWMEILMIGLVWRSMEHPGKLLFAPNLLLDRNQGKCVEGGVEIFDMLLATSSRFRMMNLQGEEFVCLKSIILLNSGVYTFLSSTLKSLEEKDHIHRVLDKITDTLIHLMAKAGLTLQQQHQRLAQLLLILSHIRHMSSKRMEHLYSMKCKNVVPLSDLLLEMLDAHRLGTGAEDPRPSRKRRSLGDVGEIVMTQSPATLSLSPGERATLSCRASQDISKYLNWYQQKPGQAPRLLIYHTSRLHSGIPARFSGSGSGTDYTLTISSLQPEDFAVYFCQQGNTLPYTFGQGTKLEIKGGGGSGGGGSGGGGSQVQLQESGPGLVKPSETLSLTCTVSGVSLPDYGVSWIRQPPGKGLEWIGVIWGSETTYYQSSLKSRVTISKDNSKNQVSLKLSSVTAADTAVYYCAKHYYYGGSYAMDYWGQGTLVTVSSTTTPAPRPPTPAPTIASQPLSLRPEACRPAAGGAVHTRGLDFACDIYIWAPLAGTCGVLLLSLVITLYCKRGRKKLLYIFKQPFMRPVQTTQEEDGCSCRFPEEEEGGCELRVKFSRSADAPAYQQGQNQLYNELNLGRREEYDVLDKRRGRDPEMGGKPRRKNPQEGLYNELQKDKMAEAYSEIGMKGERRRGKGHDGLYQGLSTATKDTYDALHMQALPPRGGGGSGGGGTGGGGSGMHKRSHTGERPFQCNQCGASFTQKGNLLRHIKLHTGEKPFKCHLCNTASAEARHIKAEMG
B5: 6761 (protein)
chain: MALPVTALLLPLALLLHAARPEIVMTQSPATLSLSPGERATLSCRASQDISKYLNWYQQKPGQAPRLLIYHTSRLHSGIPARFSGSGSGTDYTLTISSLQPEDFAVYFCQQGNTLPYTFGQGTKLEIKGGGGSGGGGSGGGGSQVQLQESGPGLVKPSETLSLTCTVSGVSLPDYGVSWIRQPPGKGLEWIGVIWGSETTYYQSSLKSRVTISKDNSKNQVSLKLSSVTAADTAVYYCAKHYYYGGSYAMDYWGQGTLVTVSSTTTPAPRPPTPAPTIASQPLSLRPEACRPAAGGAVHTRGLDFACDIYIWAPLAGTCGVLLLSLVITLYCKRGRKKLLYIFKQPFMRPVQTTQEEDGCSCRFPEEEEGGCELRVKFSRSADAPAYQQGQNQLYNELNLGRREEYDVLDKRRGRDPEMGGKPRRKNPQEGLYNELQKDKMAEAYSEIGMKGERRRGKGHDGLYQGLSTATKDTYDALHMQALPPRKGGGSKGGGTKGGGSKMHKRSHTGERPFQCNQCGASFTQKGNLLRHIKLHTGEKPFKCHLCNTASAEARHIKAEMGGKPIPNPLLGLDST
B6: 768 (protein)
chain: MALPVTALLLPLALLLHAARPEIVMTQSPATLSLSPGERATLSCRASQDISKYLNWYQQKPGQAPRLLIYHTSRLHSGIPARFSGSGSGTDYTLTISSLQPEDFAVYFCQQGNTLPYTFGQGTKLEIKGGGGSGGGGSGGGGSQVQLQESGPGLVKPSETLSLTCTVSGVSLPDYGVSWIRQPPGKGLEWIGVIWGSETTYYQSSLKSRVTISKDNSKNQVSLKLSSVTAADTAVYYCAKHYYYGGSYAMDYWGQGTLVTVSSTTTPAPRPPTPAPTIASQPLSLRPEACRPAAGGAVHTRGLDFACDIYIWAPLAGTCGVLLLSLVITLYCKRGRKKLLYIFKQPFMRPVQTTQEEDGCSCRFPEEEEGGCELRVKFSRSADAPAYQQGQNQLYNELNLGRREEYDVLDKRRGRDPEMGGKPRRKNPQEGLYNELQKDKMAEAYSEIGMKGERRRGKGHDGLYQGLSTATKDTYDALHMQALPPRGGGGSGGGGTGGGGSGMHKRSHTGERPFQCNQCGASFTQKGNLLRHIKLHTGEKPFKCHLCNTASAEARHIKAEMGGKPIPNPLLGLDST

Key:
[1] = test system: NanoLuciferase fused to various IKZF3-based degradation tags; experiment: Western blot of variant IKZF3-based degradation tags fused to NanoLuciferase in HEK293T cells; assay type: cell-based, human; details: tag fused to N-terminus of NanoLuciferase
Experimental: Additionally, the IKZF3-based degradation tags were modified using the following strategies:
(1) deleting N-terminal and/or C-terminal amino acid residues;
Protein degradation was measured using western blot as described in Example 2.

[2] = test system: CAR19 fused to HilD tag and/or FurON; experiment: Flow cytometry of surface CAR expression on JNL cells, 10 μM lenalidomide and/or bazedoxifene 24 hours; assay type: cell-based, human; details: surface CAR on transduced JNL cells; for % reduction in CAR expression / Effect of lenalidomide: 10 μM lenalidomide, 24 hours; for CAR Expression: flow cytometry, FurON constructs only in presence of bazedoxifene; for Effect of bazedoxifene: with/without bazedoxifene
Text: Next, the surface expression of CAR19 on stably transduced JNL cells was examined by flow cytometry. […] On Day 2, cells were harvested, stained using biotinylated-protein L (Genscript, M00097) followed by PE conjugated streptavidin (Jackson Lab, 016-110-084), and subjected to flow cytometry analysis using Fortessa instrument.

Row | Molecule | ability of the tag to facilitate lenalidomide-dependent degradation of NanoLuciferase [1] | ability of the tag to facilitate lenalidomide-dependent degradation of NanoLuciferase ([1]; listed as SEQ ID NO: 100) | ability of the tag to facilitate lenalidomide-dependent degradation of NanoLuciferase ([1]; listed as SEQ ID NO: 84) | % reduction in CAR expression [2] [%] | Effect of lenalidomide [2] | CAR Expression [2] | Effect of bazedoxifene [2]
1 | IKZF3 145-155 MALEK: tag comprising the amino acid sequence of SEQ ID NO: 89 (PFQCNQCGASFMALEKMALEKMALE; source: /note="Description of Unknown: IKZF3 sequence") | did not mediate lenalidomide-induced degradation; also recorded: did not mediate lenalidomide induced degradation |  |  |  |  |  | 
2 | IKZF3 136-180 and 236-249 K245S: tag with lysine at position 245 mutated to serine, SEQ ID NO: 100 (HKRSHTGERPFQCNQCGASFTQKGNLLRHIKLHTGEKPFKCHLCNTASAEARHISAEMG; source: /note="Description of Unknown: IKZF3 sequence") | facilitated lenalidomide-induced degradation | did not significantly impact the ability of the tag to mediate degradation |  |  |  |  | 
3 | IKZF3 136-180 MALEK: residues 236-249 replaced with helix MALEKMALEKMALE, SEQ ID NO: 85 | retained the ability to facilitate lenalidomide-dependent degradation; also recorded: facilitated lenalidomide-induced degradation |  |  |  |  |  | 
4 | IKZF3 140-170 MALEK: tag comprising the amino acid sequence of SEQ ID NO: 87 | did not mediate lenalidomide-induced degradation; also recorded: did not mediate lenalidomide induced degradation |  |  |  |  |  | 
5 | IKZF3 136-180 and 236-249 K245R: tag with lysine at position 245 mutated to arginine, SEQ ID NO: 84 (HKRSHTGERPFQCNQCGASFTQKGNLLRHIKLHTGEKPFKCHLCNTASAEARHIRAEMG; source: /note="Description of Unknown: IKZF3 sequence") | facilitated lenalidomide-induced degradation |  | did not significantly impact the ability of the tag to mediate degradation |  |  |  | 
6 | B1 |  |  |  | 90 | Yes | Yes | 
7 | B2 |  |  |  | 92 | Yes | Yes | Yes
8 | B3 |  |  |  |  | No | Yes | Yes
9 | B4 |  |  |  | 95 | Yes | Yes | Yes
10 | B5 |  |  |  | 77 | Yes | Yes | 
11 | B6 |  |  |  | 88 | Yes | Yes | 

Reference: patent publication US20220251152A1, “COMPOSITIONS AND METHODS FOR SELECTIVE PROTEIN DEGRADATION” (Novartis AG, priority 2019, published 2022)
